What was measured:
sortilin = target: T1, sortilin (Homo sapiens, UniProt Q99523); assay: GSTpro internalization: acid wash (PBS, pH 2.0) before fixation; assay type: cell-based; settings: PBS pH 2.0 immediately before fixation
T1 construct: They were transfected with plasmids either encoding wild type sortilin, or sortilin with a mutation that renders it endocytosis deficient; expressed in transfected cells; host or cells: HEK 293 cells, transient transfection (lipofectamine)
T1 sequence (Q99523 78-831): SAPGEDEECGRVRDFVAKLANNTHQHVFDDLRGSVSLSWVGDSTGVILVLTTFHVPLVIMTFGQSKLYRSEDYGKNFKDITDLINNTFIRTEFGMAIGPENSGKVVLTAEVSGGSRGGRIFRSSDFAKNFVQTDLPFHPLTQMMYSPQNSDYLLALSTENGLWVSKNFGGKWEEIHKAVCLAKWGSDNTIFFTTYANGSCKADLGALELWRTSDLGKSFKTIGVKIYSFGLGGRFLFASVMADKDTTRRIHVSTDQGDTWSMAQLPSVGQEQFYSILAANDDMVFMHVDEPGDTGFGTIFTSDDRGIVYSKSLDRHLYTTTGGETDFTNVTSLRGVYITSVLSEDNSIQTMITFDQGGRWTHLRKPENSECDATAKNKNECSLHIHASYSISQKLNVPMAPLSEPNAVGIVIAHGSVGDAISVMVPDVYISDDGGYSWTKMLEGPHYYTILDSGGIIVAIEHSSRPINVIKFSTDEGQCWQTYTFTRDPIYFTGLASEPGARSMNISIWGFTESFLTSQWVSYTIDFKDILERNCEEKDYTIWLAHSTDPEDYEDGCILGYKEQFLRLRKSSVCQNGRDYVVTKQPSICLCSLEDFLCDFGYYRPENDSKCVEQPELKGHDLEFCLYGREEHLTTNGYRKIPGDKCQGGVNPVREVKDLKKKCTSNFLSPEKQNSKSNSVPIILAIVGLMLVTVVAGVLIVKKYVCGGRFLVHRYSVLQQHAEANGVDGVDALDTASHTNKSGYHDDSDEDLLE
Source text: To further examine whether GSTpro was internalized, rather than only binding to the cell exterior, extracellularly bound ligand was removed by washing cells in PBS acidified to pH 2.0 with HCl supplemented with 0.03 M sucrose and 10% FCS immediately before fixation.
It was not clear whether the detected ligand signal was only due to GSTpro binding to sortilin, or whether sortilin would be subsequently internalized. To determine if GSTpro was endocytosed after sortilin binding, we performed immunocytochemical staining with and without detergent (Fig. 6a, b, respectively). […] However, alternative interpretations are also possible (see discussion). […] We investigated if GSTpro was bound to the cell surface by using an acid wash to remove surface bound GSTpro. Cells were washed in PBS, pH 2.0 immediately before fixation, to remove extracellular ligand bound to receptors.

[1] = system: empty vector control-transfected cells; assay: GSTpro signal in empty vector control-transfected HEK293 cells; assay type: cell-based, human; settings: Fig. 3a, c, d
Description: HEK 293 cells were grown in DMEM with 10% fetal bovine serum. They were transfected with plasmids either encoding wild type sortilin, or sortilin with a mutation that renders it endocytosis deficient, or an empty control vector according to manufacturer’s instructions using 20 µg lipofectamine (Thermo Fischer Scientific) with 8 µg DNA on […] per 6 cm, poly-lysine coated dish. The cells were initially plated into 24-well dishes after transfection. That intermediate step rendered more uniform cell numbers in the 96-well dishes that were used to run the actual assay. 24 h later, cells were split into black opaque-walled, clear-bottom 96 well dishes at 42000 cells in 80 µl medium/well. […]
The fixed cells were washed with PBS for 15 min, followed by two 15 min washes with PBS with 0.1% Triton X-100. […] Wells to be evaluated for blocking of the sortilin-GSTpro interaction by antibodies were only stained with an antibody against the pro domain of proNGF in 10% FBS at a dilution of 1:1500 (Millipore (N-term) clone EPI318Y, Rabbit Monoclonal Antibody Catalog Number: #04-1142). […]
The following day, wells were washed 3 × 15 min with PBS/0.1% Triton X-100. […] Cellular fluorescence was quantified using an array scanner and the “Neuronal Profiler” Bioapplication (Thermo Fisher Scientific) as described below. […]

B1: GSTpro: fusion of Glutathione S-transferase (GST) merged at the C-terminal of GST to the pro part (19–121) of human proNGF (protein)
chain: EPHSESNVPAGHTIPQAHWTKLQHSLDTALRRARSAPAAAIAARVAGQTRNITVDPRLFKKRRLRSPRVLFSTQPPREAADTQDLDFEVGGAAPFNRTHRSKR
modifications: left off: GST, N-terminal, kept
notes: fusion of Glutathione S-transferase (GST) merged at the C-terminal of GST to the pro part (19–121) of human proNGF
fraction of GSTpro signal removed by acid wash (in words) (sortilin): only removes a small fraction of the GSTpro signal
reduction of GSTpro signal by acid wash (sortilin; data not shown): 20%
GSTpro binding signal in empty vector cells (in words) [1]: only very low signal

Source: article PMC5882628, “Development of a Cell-Based Assay to Assess Binding of the proNGF Prodomain to Sortilin” (Cellular and Molecular Neurobiology, 2017)
